Patent US20220411530A1 (NANTONG YICHEN BIOPHARMA, published 2022)

Tests used:
[1] = biological target: T1, CD3 on Jurkat (CD3+) cells (Homo sapiens (Human), UniProt P07766 23-207; P04234 22-171; P09693 23-182); experiment: flow cytometry on Jurkat (CD3+) cells
T1 construct: also called Jurkat T cells

[2] = biological target: T2, PSMA on the surface of LnCap cells (human, UniProt Q04609 1-750); experiment: flow cytometry on LnCap (PSMA+) cells
T2 construct: whole, on cells; also called LnCap (PSMA+) cells

[3] = biological target: T2, PSMA on the surface of LnCap cells; experiment: cell-based or functional assay

T2 sequence (Q04609 whole entry): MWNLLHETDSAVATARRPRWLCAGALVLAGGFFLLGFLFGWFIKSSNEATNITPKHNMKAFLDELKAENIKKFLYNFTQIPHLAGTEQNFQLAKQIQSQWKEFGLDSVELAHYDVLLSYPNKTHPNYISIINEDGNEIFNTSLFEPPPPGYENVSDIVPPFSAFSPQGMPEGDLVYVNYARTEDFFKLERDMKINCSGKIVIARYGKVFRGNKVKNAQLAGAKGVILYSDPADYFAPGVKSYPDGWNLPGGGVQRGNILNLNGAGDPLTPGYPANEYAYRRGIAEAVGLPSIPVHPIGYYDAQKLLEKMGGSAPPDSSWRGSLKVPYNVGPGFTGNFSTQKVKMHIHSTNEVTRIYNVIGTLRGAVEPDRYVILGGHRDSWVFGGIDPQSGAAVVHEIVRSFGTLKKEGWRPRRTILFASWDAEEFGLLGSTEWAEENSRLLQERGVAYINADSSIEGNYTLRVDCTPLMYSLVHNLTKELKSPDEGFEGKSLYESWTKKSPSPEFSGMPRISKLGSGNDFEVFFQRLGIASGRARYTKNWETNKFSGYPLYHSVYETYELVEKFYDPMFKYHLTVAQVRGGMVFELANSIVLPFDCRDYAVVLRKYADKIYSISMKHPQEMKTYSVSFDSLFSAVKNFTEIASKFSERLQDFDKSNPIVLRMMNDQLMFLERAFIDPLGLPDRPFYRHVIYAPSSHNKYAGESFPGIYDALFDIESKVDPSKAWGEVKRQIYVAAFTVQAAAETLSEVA
T1 sequence (P07766 23-207 limits assumed, form in doubt, chain 1 of 3): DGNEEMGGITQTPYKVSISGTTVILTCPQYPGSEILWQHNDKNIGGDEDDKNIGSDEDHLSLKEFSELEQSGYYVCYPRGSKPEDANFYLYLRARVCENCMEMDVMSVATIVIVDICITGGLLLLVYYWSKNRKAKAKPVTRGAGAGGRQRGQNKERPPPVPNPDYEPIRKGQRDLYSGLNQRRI
T1 sequence (P04234 22-171 limits assumed, form in doubt, chain 2 of 3): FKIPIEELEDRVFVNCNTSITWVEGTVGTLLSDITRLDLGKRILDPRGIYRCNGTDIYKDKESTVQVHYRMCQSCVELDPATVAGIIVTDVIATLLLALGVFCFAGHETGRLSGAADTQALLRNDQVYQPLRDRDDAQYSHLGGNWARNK
T1 sequence (P09693 23-182 limits assumed, form in doubt, chain 3 of 3): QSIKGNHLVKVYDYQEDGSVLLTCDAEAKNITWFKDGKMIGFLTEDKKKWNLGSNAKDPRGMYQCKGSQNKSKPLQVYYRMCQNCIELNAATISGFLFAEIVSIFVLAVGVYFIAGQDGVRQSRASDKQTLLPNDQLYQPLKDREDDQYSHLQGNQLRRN

B1: aCD3-aPSMA bispecific antibody (bispecific antibody)
chain 1: not shown
chain 2: EVQLVESGGGLVQPGGSLRLSCAASGFTFNTYAMNWVRQAPGKGLEWVARIRSKYNNYATYYADSVKDRFTISRDDSKNTLYLQMNSLRAEDTAVYYCVRHGNFGNSYVSWFAYWGQGTLVTVSS
notes: also called the bispecific antibody
With B1 the EC50 [1] was 510 pM, the EC50 [2] was 50 pM and the “LDH Killing EC50 (pM)” value [3] was 184 pM.
